Measured values: US6586197B1, “Methods and materials for identifying novel pesticide agents” (priority 1999, dated 2003)

What was measured:
[1] = test system: expressed 120 kDa APN from Sf21 cells; assay: Toxin affinity chromatography and anti-APN immunoblot, Sf21 cells; format: binding, Manduca sexta; conditions: CHAPS-solubilized Sf21 cells, anti-APN immunoblot (FIG. 13)
Protocol: Affinity purification method of M. sexta 120 kDa APN from Sf21 cells or M. sexta midgut BBMV was described in Luo et al (1996). Briefly, Cry1Ac, Cry1Ba and Cry3a toxins (200 μg) were coupled to 400 μl of cyanogen bromide-activated Sepharose 4B in 20 mM Na2CO3, pH 9.6. M sexta BBMV (1 ml, 3.4 mg/ml proteins) or Sf21 cells (10^7 cells) were solubilized with 2% 3-[(3-cholamidopropyl) dimethylammoniol]-1-propane-sulphonate (CHAPS) in buffer A (50 mM Na2CO3, pH 9.6, 200 mM NaCl, 5 mM EGTA, 0.1% CHAPS). Insoluble material was removed by centrifugation at 27,000×g for 30 min at 4° C. CHAPS-solubilized BBMV (1 ml) or Sf21 cells (2 ml) were then added to the toxin-coupled Sepharose beads equilibrated with Buffer A. The mixture was incubated at 4° C. overnight. After washing with 100 ml of Buffer A, the binding protein-toxin complex was dissociated from the beads by heating in SDS-PAGE sample buffer at 100° C. for 5 min. The samples were separated by 8% SDS-PAGE, and then electrophoretically transferred to nitrocellulose membrane (Millipore Corp., Bedford, Mass.) in transfer buffer (Towbin et al., 1979) at 4° C. overnight. The membrane was blocked with 5% non-fat dry milk in PBST at room temperature for 1 h, and then probed with anti-APN antibody (0.5 μg/ml) in PBST containing 0.1% non-fat dry milk for 2 h. […]

[2] = test system: Sf21 cells transfected with pHSP120; assay: Toxicity assay (Trypan blue cell mortality), Sf21 cells expressing M. sexta 120 kDa APN; conditions: 2 h
Protocol: (§1) The pHSP120 plasmid DNA was isolated and purified using a Plasmid Maxi Kit (Qiagen, Valencia, Calif.). Sf21 (IPLB-Sf21) cells (Vaughn et al., 1977) were plated at 1.8×10^6 cells per plate (60 mm diameter) prior to transfection with pHSP120 DNA. Plasmid DNA (10 μg) was mixed with 5 μl of Lipofectin reagent (Gibco BRL, Gaithersburg, Md.) and combined with 1 ml of TC-100 medium (Gibco BRL, Gaithersburg, Md.). The mixture was incubated at room temperature for 15 min. Following 3 washes with TC-100 medium, the DNA/Lipofectin mixture was added to the cells, and then the cells were incubated at room temperature for 4 h on a rocker. After removal of DNA/Lipofectin mixture, TC-100 with 10% fetal bovine serum (4 ml) was added to the plates and the cells were incubated at 27° C. overnight. Expression of 120 kDa APN in Sf21 cells was induced by heat-shocking cells at 42° C. for 30 min the following day. After incubation at 27° C. for 24 h, the cells were collected and analyzed using immunofluorescence localization and Western blotting.
Sf21 cells (1.8×10^6) were grown and heat-shocked as described above. […] The freshly prepared toxin solution (1 ml) was added to each Sf21 cell plate and incubated at room temperature for 2 h. Cell mortality was determined by trypan blue staining as described by Thomas and Ellar (1983).
(§2) Thetoxicity of three Cry1toxins to Sf21 cells expressing M sexta 120 APN was determined. A single concentration of Cry1toxins (40 μg/ml) was used and the cell mortality was measured by Trypan blue staining (Thomas and Ellar 1983).

[3] = test system: Sf21 cells transfected with pHSP-HR5; assay: Toxicity assay (Trypan blue cell mortality), control-vector Sf21 cells; conditions: 40 μg/ml toxin in insect PBS, 2 h, Trypan blue (0.1%) staining; means of three assays (±standard error); control vector
Protocol: as §1, with “Expression of 120 kDa APN in Sf21 cells was induced by heat-shocking cells at 42° C. for 30 min the following day.” left out
Sf21 cells (1.8×10^6) were grown and heat-shocked as described above. […] Cell mortality was determined by trypan blue staining as described by Thomas and Ellar (1983).
as §2

[4] = test system: expressed 120 kDa APN on Sf21 cells transfected with pHSP120; assay: Immunofluorescence binding of rhodamine-labeled toxins to Sf21 cells (confocal microscopy), pHSP120; parameters: species or system Manduca sexta; conditions: toxin 1 μg/ml, fixed Sf21 cells transfected with pHSP120
Protocol: Growth of B. thuringiensis strains, trypsin activation, and fast-performance liquid chromatography (Pharmacia) purification of Cry1Ac, […] and Cry3a toxins were done as previously described (Garczynski et al 1991; Lu and Adang 1996). […] The purified Cry1Ac and Cry1Ba (200 μg) were labeled with 5-(and-6)-carboxytetramethylrhodamine, succinimidyl ester [5(6)-TAMRA SE] (Molecular Probe, Eugene, Oreg.) according to the manufacturer's instructions. Briefly, 5(6)-TAMRA (5 mg) were dissolved in 0.5 ml of Dimethylformamide (DMF) immediately before starting the labeling. The dye solution (100 μl) was slowly added into 500 μl of toxin sample (200 μg toxins) and incubated for 1 h at room temperature. The reaction was stopped by adding 0.1 ml of 1.5 M hydroxylamine, pH 8.5, and then the mixture was incubated. for 1h at room temperature. […]
Sf21 cells were plated onto a microscope cover glass (18×18 mm) in a tissue culture dish (60×15 mm diameter), and then transfected and heat-shocked as described above. […] Immunostained cells were observed using fluorescence microscopy or fluorescence confocal microscopy (Center for Advanced Ultrastructural Research, University of Georgia).
Since the expressed 120 kDa APN located on Sf21 cell surfaces, we examined the binding of Cry1toxins to Sf21 cells using double immunofluorescence staining. […] And then cells were viewed by fluorescence confocal microscopy.

[5] = target: T1, native 120 kDa APN from M sexta BBMV (Manduca sexta, UniProt Q11001); assay: Toxin affinity chromatography and anti-APN immunoblot, midgut BBMV; format: binding; conditions: CHAPS-solubilized M sexta BBMV, anti-APN immunoblot (FIG. 13)
T1 construct: native 120 kDa APN from M sexta BBMV; from tissue; host or cells: brush border membrane vesicles from midguts of 5th instar M. sexta larvae, CHAPS-solubilised
T1 sequence (Q11001 36-968): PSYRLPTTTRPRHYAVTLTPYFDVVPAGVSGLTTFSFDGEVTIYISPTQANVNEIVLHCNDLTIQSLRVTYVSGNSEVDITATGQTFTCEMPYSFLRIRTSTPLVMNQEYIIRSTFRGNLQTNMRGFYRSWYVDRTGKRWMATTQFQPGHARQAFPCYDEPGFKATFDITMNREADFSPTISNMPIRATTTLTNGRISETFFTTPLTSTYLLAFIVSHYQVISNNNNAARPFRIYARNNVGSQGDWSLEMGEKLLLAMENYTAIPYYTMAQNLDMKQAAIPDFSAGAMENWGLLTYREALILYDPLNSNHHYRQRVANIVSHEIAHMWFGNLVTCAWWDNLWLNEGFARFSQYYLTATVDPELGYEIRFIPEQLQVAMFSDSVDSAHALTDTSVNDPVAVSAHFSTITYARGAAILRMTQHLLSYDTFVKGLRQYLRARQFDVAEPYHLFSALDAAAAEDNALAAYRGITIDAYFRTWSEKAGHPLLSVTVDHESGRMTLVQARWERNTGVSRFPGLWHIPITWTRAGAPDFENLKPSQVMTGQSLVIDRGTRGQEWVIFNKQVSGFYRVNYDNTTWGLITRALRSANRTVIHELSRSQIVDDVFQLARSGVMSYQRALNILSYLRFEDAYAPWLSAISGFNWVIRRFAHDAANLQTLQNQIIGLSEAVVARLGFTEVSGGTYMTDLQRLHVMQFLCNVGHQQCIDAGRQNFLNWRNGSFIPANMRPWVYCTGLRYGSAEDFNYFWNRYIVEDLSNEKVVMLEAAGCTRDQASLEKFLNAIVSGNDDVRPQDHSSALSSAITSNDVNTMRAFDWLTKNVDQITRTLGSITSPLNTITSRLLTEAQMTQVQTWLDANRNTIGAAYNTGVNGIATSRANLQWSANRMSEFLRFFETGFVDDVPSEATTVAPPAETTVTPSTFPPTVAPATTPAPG
Protocol: M. sexta larvae were reared on artificial diet (Southland Products, Inc.; Lake Village, Ark.) at 26° C., 70% relative humidity with a photoperiod of 12:12 (Light:Dark) h. Midguts were dissected from second day 5th instar larvae, and either immediately used to prepare brush border membrane vesicles (BBMV) or stored at −80° C. BBMV were prepared according to that described in Wolfersberger et al. (1987) as modified in Ferre et al. (1991) and stored in 0.3 M mannitol, 5 mM EGTA, 17 mM Tris-Cl, pH 7.5, at −80° C. until needed. The 115 kDa M. sexta APN was purified as described previously (Lu and Adang, 1996).
Affinity purification method of M. sexta 120 kDa APN from Sf21 cells or M. sexta midgut BBMV was described in Luo et al (1996). Briefly, Cry1Ac, Cry1Ba and Cry3a toxins (200 μg) were coupled to 400 μl of cyanogen bromide-activated Sepharose 4B in 20 mM Na2CO3, pH 9.6. M sexta BBMV (1 ml, 3.4 mg/ml proteins) or Sf21 cells (10^7 cells) were solubilized with 2% 3-[(3-cholamidopropyl) dimethylammoniol]-1-propane-sulphonate (CHAPS) in buffer A (50 mM Na2CO3, pH 9.6, 200 mM NaCl, 5 mM EGTA, 0.1% CHAPS). Insoluble material was removed by centrifugation at 27,000×g for 30 min at 4° C. CHAPS-solubilized BBMV (1 ml) or Sf21 cells (2 ml) were then added to the toxin-coupled Sepharose beads equilibrated with Buffer A. The mixture was incubated at 4° C. overnight. […]

[6] = 40 μg/ml toxin, the sentence does not say which plasmid

B1: Cry3a: trypsin-activated, purified B. thuringiensis Cry3a toxin (protein)
chain: NPHSQGRIRELFSQAESHFRNSMPSFAISGYEVLFLTTYAQAANTHLFLLKDAQIYGEEWGYEKEDIAEFYKRQLKLTQEYTDHCVKWYNVGLDKLRGSSYESWVNFNRYRREMTLTVLDLIALFPLYDVRLYPKEVKTELTRDVLTDPIVGVNNLRGYGTTFSNIENYIRKPHLFDYLHRIQFHTRFQPGYYGNDSFNYWSGNYVSTRPSIGSNDIITSPFYGNKSSEPVQNLEFNGEKVYRAVANTNLAVWPSAVYSGVTKVEFSQYNDQTDEASTQTYDSKRNVGAVSWDSIDQLPPETTDEPLEKGYSHQLNYVMCFLMQGSRGTIPVLTWTHKSVDFFNMIDSKKITQLPLVKAYKLQSGASVVAGPRFTGGDIIQCTENGSAATIYVTPDVSYSQKYRARIHYASTSQITFTLSLDGAPFNQYYFDKTINKGDTLTYNSFNLASFSTPFELSGNNLQIGVTGLSAGDKVYIDKIEFIPVN
- Binding of APN to toxin affinity column [1]: did not bind

B2: Cry1Ba (65 kDa): B. thuringiensis Cry1Ba toxin, 65 kDa form, provided by Dr. Masson (protein)
chain: IEDSLCIAEGNNIDPFVSASTVQTGINIAGRILGVLGVPFAGQLASFYSFLVGELWPRGRDQWEIFLEHVEQLINQQITENARNTALARLQGLGDSFRAYQQSLEDWLENRDDARTRSVLYTQYIALELDFLNAMPLFAIRNQEVPLLMVYAQAANLHLLLLRDASLFGSEFGLTSQEIQRYYERQVERTRDYSDYCVEWYNTGLNSLRGTNAASWVRYNQFRRDLTLGVLDLVALFPSYDTRTYPINTSAQLTREVYTDAIGATGVNMASMNWYNNNAPSFSAIEAAAIRSPHLLDFLEQLTIFSASSRWSNTRHMTYWRGHTIQSRPIGGGLNTSTHGATNTSINPVTLRFASRDVYRTESYAGVLLWGIYLEPIHGVPTVRFNFTNPQNISDRGTANYSQPYESPGLQLKDSETELPPETTERPNYESYSHRLSHIGIILQSRVNVPVYSWTHRSADRTNTIGPNRITQIPMVKASELPQGTTVVRGPGFTGGDILRRTNTGGFGPIRVTVNGPLTQRYRIGFRYASTVDFDFFVSRGGTTVNNFRFLRTMNSGDELKYGNFVRRAFTTPFTFTQIQDIIRTSIQGLSGNGEVYIDKIEIIPVTATFEAEYDLER
- Mortality (%) (±SE), Cells transfected with pHSP 120 ([2]; 40 μg/ml toxin in insect PBS, Trypan blue (0.1%) staining, means of three assays (±standard error)): 17.6 (±0.9) %
- Mortality of Sf21 cells (cells killed) [2, 6]: about 17%
- Toxicity to Sf21 cells in words [2, 6]: low toxicity
- Mortality (%) (±SE), Cells transfected with pHSP-HR5 [3]: 16.5 (±0.1) %
- Binding of rhodamine-labeled toxin (immunofluorescence) [4]: only bound weakly
- Binding of APN to toxin affinity column [1]: bound weakly
- Binding of APN to toxin affinity column [5]: bound weakly
